Experimental data from the supplement of paper PMC10567573.

B1: SLC35F2 (parent)
chain: QYLAERYKVNTPMLQSFINYCLLF
B2: RAB40B (parent)
chain: YSLTTSSTHKRSSLRKVKLVRPPQ

Variants of: B1
Assay: protein stability index of a GFP-peptide fusion (GPS, HEK-293T) (PSI 1-6); higher = more stable
Settings: c terminus: a fixed tail appended
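Also: lentivirally expressed fusions sorted by FACS into six bins by GFP to DsRed ratio, PSI derived from sequencing read proportions per bin multiplied by bin number.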

Protein stability index: each site, then its substitutions
L22: P 1.82; V 3.01; T 2.29; Y 3.57; R 2.03; S 2.21; Q 2.44
F24: R 2.88; D 2.21; G 2.48; M 3.6; I 3.21; V 3.47; Q 3.26; Y 3.33; K 1.98; H 2.13; E 2.28; L 2.95; N 2.58; W 2.19; C 1.99; S 1.81; P 3.94; T 2.69
L23: W 2.47; T 1.94; S 2.08; F 2.96; K 1.64; Q 1.3; P 1.63; Y 2.86; H 1.81; D 2.96; G 1.91; I 3.19; E 1.78; M 2.7; A 2.27; C 1.69; N 2.59; R 2.46

Variants of: B2
Assay: as above
Settings: c terminus: a fixed tail appended

Protein stability index, by site and new letter:
S7: T 2.81; P 3.47; M 2.42; R 2.62; Q 2.9; K 3.11; D 2.94; C 2.92; H 3.07; W 2.24; I 2.6; V 2.7; N 2.98; A 2.84; L 2.81
S2: R 3.56; F 1.82; M 2.81; G 3.06; L 2.48; Y 1.93
K16: M 2.35; V 2.1; I 1.95; Q 3.08; R 2.99; N 3.19; P 3.06; G 2.81; W 2.14; S 2.93; Y 2.9; C 2.58
P22: Y 2.84; R 3; K 3.28; W 1.94; S 3.13; T 3.32; N 3.72; C 3.61; D 3.39; F 2.44; L 2.58
R11: G 2.83; W 1.87; H 3.15; C 2.59; N 2.87; P 2.75; I 2.46; K 3.17; A 3.68; T 3.67; F 2.32; L 2.3; V 2.52
R15: M 2.46; E 3.25; K 3.24; T 3.02; N 2.94; W 2.12; V 2.48; D 3.54; Q 3.35; F 1.94; I 2.13; P 3.47; A 2.49; C 2.81; S 2.95
Q24: F 2.53; P 3.21; K 2.75; C 2.45; E 3.06; W 2.68; Y 3.09; L 2.86; T 3; S 2.76; N 2.96; R 2.62; D 3.42
H9: V 2.65; I 2.61; K 3.29; F 2.91; S 3.42; A 2.75; L 3.26
V20: A 3.54; H 2.92; Y 2.85; S 3.35; M 2.79; Q 3.09; L 2.71; E 3.56; F 2.67; R 3.09; P 3.56
K10: H 2.68; I 2.02; M 3.3; C 2.3; P 2.92; A 3.14; L 2.81; T 2.43; W 1.89; F 2.62; S 3.02; E 3.67
S6: W 2.17; H 3.42; V 2.83; N 2.77; R 2.96; E 3.57; P 2.63; K 3.33; M 2.62; L 2.93; T 3.29; A 2.88; C 2.95; F 2.38; G 3.34
S12: M 2.63; I 2.36; V 2.57; W 2.23; T 3.07; F 2.17; H 3.16; Y 2.85; Q 3.71; K 3.83
R21: H 2.9; G 3.62; T 2.76; M 2.51; Y 2.4; Q 2.95; F 2.17; K 3.55; C 2.91; V 2.53; D 3.19; S 3.09; E 3.41
L19: Q 2.33; A 4.17; E 3.04; N 3.39; K 4.09; G 3.7; C 3.37; H 3.33; F 3.1; W 3.15; D 3.71; S 3.45; T 3.25; V 3.19
P23: E 3.1; M 2.8; F 2.6; K 3.25; N 2.96; H 3.01; W 2.04; R 3.33; V 3.02; A 3.37; L 2.3; D 3.2; Y 3.79; I 2.82
L14: G 3.79; W 2.38; I 3.37; F 2.62; Y 3.06; E 3.82; T 3.87; Q 3.98; D 3.83; S 3.5; N 3.77; A 3.68
T5: Y 2.53; S 3.07; R 3.43; K 3.2; A 3.48; W 1.45; G 3.25; C 2.62; P 3.05; D 3.4
K18: V 2.68; S 3.06; I 2.34; P 3.47; D 3.81; Y 2.05; C 2.63; G 2.81; H 3.71
V17: E 3.5; G 3.12; Y 2.98; N 3.39; L 2.77; K 3.47; S 3.3; A 3.28; H 3.55; Q 3.38; T 3.09; D 3.33
T4: Q 3.82; E 3.52; L 3.26; Y 2.17; A 3.06; P 3.16; N 3.31; D 3.85; F 1.77; C 2.48; I 2.53; V 2.7; G 3.33
S13: A 3.25; R 3.4; E 3.21; P 3.4; V 3.06; W 1.69; L 2.45; N 3.21; Q 3.35; C 3.01
T8: V 2.53; S 2.89; H 2.76; F 2.63; N 3.4; Q 3.26; E 3.51; L 2.43; W 2.49; Y 3; A 2.82; I 2.63; D 3.32
Y1: I 3.15; D 4.11; T 3.66; G 3.75; C 3.16; Q 3.82; N 4.04; W 3.19; A 3.99; R 3.94; H 3.46; V 2.74; L 3.15; K 3.61
L3: S 3.13; A 3.88; E 3.94; F 2.57; T 3.08; H 3.06; K 3.43; Q 3.31; D 3.7; V 3.17; N 3.3; G 3.18; R 3.34; I 2.88; W 2.02; M 2.97; Y 2.24
